Results taken from patent publication US20210041163A1 (Hoffmann-La Roche, published 2021).

Molecular target: T1, human neonatal Fc receptor (FcRn), FcRn beta-2-microglobulin complex (human, UniProt P55899 24-297; P61769 21-119)
T1 construct: also called human FcRn
Assay: SPR-based binding assay, relative to the reference antibody

T1 sequence (P55899 24-297 limits assumed, chain 1 of 2): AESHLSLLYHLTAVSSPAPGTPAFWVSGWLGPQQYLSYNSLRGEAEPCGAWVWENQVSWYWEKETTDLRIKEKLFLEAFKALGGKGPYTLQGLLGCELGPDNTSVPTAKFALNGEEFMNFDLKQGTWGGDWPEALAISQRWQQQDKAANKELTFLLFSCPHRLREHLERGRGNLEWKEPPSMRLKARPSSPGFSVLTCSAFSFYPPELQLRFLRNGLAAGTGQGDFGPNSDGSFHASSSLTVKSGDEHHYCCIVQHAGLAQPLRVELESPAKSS
T1 sequence (P61769 21-119 limits assumed, chain 2 of 2): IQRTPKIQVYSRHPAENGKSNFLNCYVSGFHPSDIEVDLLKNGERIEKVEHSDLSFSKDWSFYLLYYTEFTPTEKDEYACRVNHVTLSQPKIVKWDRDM

B1: anti-digoxygenin antibody variant 7 (LC-G57R and LC-S60K) (antibody, human IgG1, kappa, name in Kabat numbering)
heavy: not shown
light: DIQMTQSPSSLSASVGDRVTITCRASQDIKNYLNWYQQKPGKAPKLLIYYSSTLLSRVPKRFSGSGSGTDFTLTISSLQPEDFATYYCQQSITLPPTFGGGTKVEIKRRTVAAPSVFIFPPSDEQLKSGTASVVCLLNNFYPREAKVQWKVDNALQSGNSQESVTEQDSKDSTYSLSSTLTLSKADYEKHKVYACEVTHQGLSSPVTKSFNRGEC
notes: Variant of m1
- relative SPR binding: 161%
